Measurements: US9243044B2, “Anticoagulant polypeptide and applications thereof” (GUANGDONG MEDICAL COLLEGE, priority 2011, dated 2016)

Assays:
SD rats = assay: Rat arterio-venous shunt thrombus formation model; type: in vivo; details: 100 U·kg^−1 i.v.
Protocol: 50 SPF grade male SD rats (provided by the laboratory animal center of Guangdong Medical College, 300-350 g body weight) were randomly divided into saline control group, positive control group (100 U·kg^−1 heparin sodium, Shanghai No. 1 Biochemical & Pharmaceutical Co. Ltd), and rNAPT-1 low dose (100 μg·kg^−1), middle dose (1 mg·kg^−1), high dose group (5 mg·kg^−1), 10 rats each group, respectively. These rats were anaesthetized with 10% chloral hydrate (250 mg/kg) by intraperitoneal injection. The right common carotid artery and left external jugular vein was exposed and dissected bluntly from the surrounding tissue after a surgical incision. One end of a polyethylene pipe (1.5 mm of diameter, 22 cm of length) with a 5 cm length of No. 4 operation suture in it and filled with 50 U/mL heparin solution was inserted into the right common carotid artery, and the other end was inserted into the left external […] vein. 5 min after tail intravenous injection of drugs, the artery clamp was opened, and blood flow from the right common carotid artery to the left external jugular vein through the polyethylene pipe. After 15 min of blood flow, the suture line was quickly removed and weighed. The net weight of thrombus is total weight minus suture weight; inhibition rate=(wet weight of thrombus of saline control group−wet weight of thrombus of administration group)/wet weight of thrombus of saline control group×100%.

normal human plasma [1] = assay: PT assay in normal human plasma; type: biochemical; details: for prolongation of PT (in words): 100 nM and 500 nM; for PT: normal human plasma
Protocol: (§1) The recombinant anticoagulant polypeptides were expressed in Escherichia coli and purified in our laboratory. Anticoagulant activity was determined by measuring the aPTT and PT.
For the PT assay, 10 μl recombinant protein at various concentration was mixed with 45 μl normal human plasma and incubated for 15 mins at 37° C. 45 μl prewarmed PT reagent (MDC Hemostasis, Germany) was then added and the clotting time was measured with the absorbance at 630 nm by using an E1x808 kinetic microtiter reader (BioTek, United States). Each concentration was repeated 3 times.

human fIIa (thrombin) = target: T1, human fIIa (thrombin) (Homo sapiens, UniProt P00734); assay: Chromogenic assay, fIIa (thrombin); type: biochemical
T1 construct: Human coagulation factors IIa (thrombin), Xa, XIa, XIIa, EGR-fXa; purchased Haematologic Technologies Inc (United States)
From the text: (§2) The recombinant anticoagulant polypeptides in the present invention were expressed in E. coli and purified in our laboratory, of which the activities against coagulation factors were investigated by chromogenic assays. Human coagulation factors IIa (thrombin), Xa, XIa, XIIa, EGR-fXa were products of Haematologic Technologies Inc (United States). Recombinant fVIIa was products of Novo-Nordisk (Denmark). Recombinant soluble tissue factor (sTF) was purchased from Protgen (Beijing, China). The following chromogenic substrates were used for these coagulation factor assays: S2765 for human fXa, S2288 for human fVIIa and fIIa, 52366 for human fXIa and fXIIa, respectively.
(§3) The chromogenic assays were carried out in a total reaction volume of 100 μl in individual wells of a 96-well microtiter plate. 50 μl fIIa, fXa, fXIa, or fXIIa (final concentration: 1 nM) was incubated with 10 μl recombinant anticoagulant polypeptide at various concentrations (or PBS control group) Assays for the detection activity of fVIIa: 50 μl fVIIa+TF (1 μM) and EGR-fXa (final concentration 500 nM) was incubated for 15 mins at 25° C., respectively. After the addition of 40 μl of prewarmed chromogenic substrate to a final concentration of 400 μM, the changes of absorbance at 405 nm were monitored by using an E1x808 kinetic microtiter reader. The data were used to calculate the velocities of response.

human fXa = target: T2, human fXa (Homo sapiens, UniProt P00742); assay: Chromogenic assay, fXa; type: biochemical
T2 construct: Human coagulation factors IIa (thrombin), Xa, XIa, XIIa, EGR-fXa; purchased Haematologic Technologies Inc (United States)
From the text: as §2, §3

human fXIIa = target: T3, human fXIIa (Homo sapiens, UniProt P00748); assay: Chromogenic assay, fXIIa; type: biochemical
T3 construct: Human coagulation factors IIa (thrombin), Xa, XIa, XIIa, EGR-fXa; purchased Haematologic Technologies Inc (United States)
T3 sequence (P00748 373-615 limits assumed): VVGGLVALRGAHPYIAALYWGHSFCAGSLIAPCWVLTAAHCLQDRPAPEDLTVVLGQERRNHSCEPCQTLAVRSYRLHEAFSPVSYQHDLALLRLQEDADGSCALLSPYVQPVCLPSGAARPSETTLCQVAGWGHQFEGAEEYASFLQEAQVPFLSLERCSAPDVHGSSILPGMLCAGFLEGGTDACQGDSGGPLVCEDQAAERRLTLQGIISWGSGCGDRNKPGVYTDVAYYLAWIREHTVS
T3 sequence (P00748 20-372 limits assumed): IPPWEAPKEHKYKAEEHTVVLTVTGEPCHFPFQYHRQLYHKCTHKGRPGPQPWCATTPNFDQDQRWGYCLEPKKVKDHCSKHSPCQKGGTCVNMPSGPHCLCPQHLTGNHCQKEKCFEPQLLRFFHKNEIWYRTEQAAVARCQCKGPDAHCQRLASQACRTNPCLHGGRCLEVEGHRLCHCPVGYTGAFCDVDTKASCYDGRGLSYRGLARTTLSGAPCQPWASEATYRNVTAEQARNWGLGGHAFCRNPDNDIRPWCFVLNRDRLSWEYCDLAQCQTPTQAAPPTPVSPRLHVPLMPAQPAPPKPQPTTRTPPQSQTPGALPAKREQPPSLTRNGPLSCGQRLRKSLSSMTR
From the text: as §2, §3

human fXIa = target: T4, human fXIa (Homo sapiens, UniProt P03951); assay: Chromogenic assay, fXIa; type: biochemical; details: for inhibition of the activity of fXIa: 100 nM; for inhibition of the activity of fXIa (in words): 200 nM
T4 construct: Human coagulation factors IIa (thrombin), Xa, XIa, XIIa, EGR-fXa; purchased Haematologic Technologies Inc (United States)
From the text: as §2, §3

normal human plasma [2] = assay: aPTT assay in normal human plasma; type: biochemical; details: for prolongation of aPTT (in words): 100 nM and 500 nM; for aPTT: normal human plasma; for multiples of prolonging aPTT: ratio of mean aPTT to blank control
Protocol: as §1
For the aPTT assay, 10 μl recombinant protein at various concentrations was mixed with 50 μl fresh normal human plasma, 20 μl aPTT reagent (MDC Hemostasis, Germany) and incubated for 15 mins at 37° C. 20 μl 0.05 mol/L prewarmed CaCl2 was then added to initiate the clotting reaction. The clotting time was measured with the absorbance at 630 nm by using an E1x808 kinetic microtiter reader (BioTek, United States). Each concentration was repeated 3 times. The ratio of the mean aPTT value of each concentration to blank control group is multiples of prolonging the aPTT.

fVIIa/TF = target: T5, fVIIa/TF (Homo sapiens, UniProt P08709); assay: Chromogenic assay, fVIIa/TF; type: biochemical
T5 construct: Recombinant fVIIa was products of Novo-Nordisk (Denmark); purchased Novo-Nordisk (Denmark) for fVIIa; Protgen (Beijing, China) for sTF; Haematologic Technologies Inc for EGR-fXa
From the text: as §2, §3

BALb/c mice = assay: Mouse tail bleeding time; type: in vivo; details: tail transected after 10 min
Protocol: After 10 min, the distal tip 1.5 mm of the mouse tail was transected and the blood oozed was soaked with filter paper very 30 seconds until the bleeding stops. The bleeding time was defined as the time elapsed from the tail transection to the stoppage of bleeding.

T2 sequence (P00742 41-179 limits assumed): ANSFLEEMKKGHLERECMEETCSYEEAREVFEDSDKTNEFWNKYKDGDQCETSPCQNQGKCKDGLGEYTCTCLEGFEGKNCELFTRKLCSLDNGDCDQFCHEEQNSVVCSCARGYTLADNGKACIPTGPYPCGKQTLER
T2 sequence (P00742 235-488 limits assumed): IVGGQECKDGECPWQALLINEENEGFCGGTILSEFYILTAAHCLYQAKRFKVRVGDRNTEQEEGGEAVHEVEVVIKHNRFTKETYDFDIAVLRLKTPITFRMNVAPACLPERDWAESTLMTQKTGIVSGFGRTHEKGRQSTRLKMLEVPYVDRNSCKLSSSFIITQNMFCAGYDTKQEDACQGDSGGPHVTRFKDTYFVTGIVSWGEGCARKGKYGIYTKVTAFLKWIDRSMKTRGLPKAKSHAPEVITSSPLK
T4 sequence (P03951 19-387 limits assumed): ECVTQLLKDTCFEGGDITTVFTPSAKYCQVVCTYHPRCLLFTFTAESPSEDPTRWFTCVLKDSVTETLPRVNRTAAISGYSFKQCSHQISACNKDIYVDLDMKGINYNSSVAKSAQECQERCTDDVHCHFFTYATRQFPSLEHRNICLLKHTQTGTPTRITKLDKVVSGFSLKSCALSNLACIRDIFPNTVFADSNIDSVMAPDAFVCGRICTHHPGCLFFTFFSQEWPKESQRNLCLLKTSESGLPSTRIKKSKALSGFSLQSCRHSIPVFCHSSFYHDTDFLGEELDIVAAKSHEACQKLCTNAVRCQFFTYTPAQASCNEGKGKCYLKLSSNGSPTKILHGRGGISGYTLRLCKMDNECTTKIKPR
T4 sequence (P03951 388-625 limits assumed): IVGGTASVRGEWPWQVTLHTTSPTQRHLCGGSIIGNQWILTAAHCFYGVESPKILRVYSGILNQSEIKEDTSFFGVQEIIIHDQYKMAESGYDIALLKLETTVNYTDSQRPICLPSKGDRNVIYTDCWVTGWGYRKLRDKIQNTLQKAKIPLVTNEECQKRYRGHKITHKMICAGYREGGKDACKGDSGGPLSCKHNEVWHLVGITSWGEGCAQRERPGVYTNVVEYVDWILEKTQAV
T5 sequence (P08709 61-212 limits assumed): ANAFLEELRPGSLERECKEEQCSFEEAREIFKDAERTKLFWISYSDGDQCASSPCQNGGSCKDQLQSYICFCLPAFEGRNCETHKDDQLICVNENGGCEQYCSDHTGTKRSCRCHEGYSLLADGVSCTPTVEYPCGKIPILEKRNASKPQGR
T5 sequence (P08709 213-466 limits assumed): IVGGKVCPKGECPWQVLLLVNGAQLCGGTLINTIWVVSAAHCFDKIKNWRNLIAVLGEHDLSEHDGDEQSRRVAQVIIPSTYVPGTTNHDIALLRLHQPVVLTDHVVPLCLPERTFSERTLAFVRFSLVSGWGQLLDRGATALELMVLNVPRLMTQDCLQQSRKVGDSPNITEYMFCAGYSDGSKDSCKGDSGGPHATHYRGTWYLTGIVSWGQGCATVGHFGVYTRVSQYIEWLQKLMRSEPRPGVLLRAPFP
T5 sequence (P13726 33-251 partner limits assumed): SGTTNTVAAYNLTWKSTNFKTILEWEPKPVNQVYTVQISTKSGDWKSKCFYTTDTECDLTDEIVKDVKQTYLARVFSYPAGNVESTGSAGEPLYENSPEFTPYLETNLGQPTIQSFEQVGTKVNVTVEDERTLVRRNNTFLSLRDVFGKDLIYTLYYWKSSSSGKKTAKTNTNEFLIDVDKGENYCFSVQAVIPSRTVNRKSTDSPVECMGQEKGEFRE

## heparin sodium [reference compound]
SD rats
  wet weight of thrombus: 14.2 ± 3.6 mg
SD rats; vs saline control
  Inhibition rate %: 74.3%

B1: NAPTin-5 (protein)
chain: NPSCGENERHDECSRKECDPKCKYDGTEEKDDEKPVVCLTRVCYGDCICRDGFLRNKNGACVKAEDCEL
modifications: Sequence derived from Ancylostoma caninum or Synthetic
Normal human plasma [1]
  prolongation of PT (in words): couldn't prolong PT
Normal human plasma [1]; 100 nM
  PT: 12.2 ± 0.6 s
Normal human plasma [1]; 500 nM
  PT: 12.6 ± 0.4 s
Human fIIa (thrombin); 100 nM
  effect on fIIa activity (in words): without affecting
Human fIIa (thrombin); 200 nM
  effect on fIIa activity (in words): without affecting
Human fXa; 100 nM
  effect on fXa activity (in words): without affecting
Human fXa; 200 nM
  effect on fXa activity (in words): without affecting
Human fXIIa; 100 nM
  effect on fXIIa activity (in words): without affecting
Human fXIIa; 200 nM
  effect on fXIIa activity (in words): without affecting
Human fXIa
  inhibition of the activity of fXIa: more than 90%
  inhibition of the activity of fXIa (in words): almost completely inhibited
Normal human plasma [2]
  prolongation of aPTT (in words): significantly prolong aPTT
Normal human plasma [2]; 100 nM
  aPTT: 77.9 ± 2.9 s
  multiples of prolonging aPTT: 1.94
Normal human plasma [2]; 500 nM
  aPTT: 226.8 ± 6.6 s
  multiples of prolonging aPTT: 5.66
fVIIa/TF; 100 nM
  effect on fVIIa/TF activity (in words): without affecting
fVIIa/TF; 200 nM
  effect on fVIIa/TF activity (in words): without affecting
BALb/c mice; 100 μg·kg^−1 tail vein
  Bleeding time: 8.30 ± 2.3 min
BALb/c mice; 1 mg·kg^−1 tail vein
  Bleeding time: 8.31 ± 1.0 min
BALb/c mice; 5 mg·kg^−1 tail vein
  Bleeding time: 8.33 ± 2.4 min

B2: NAPTin-7 (protein)
chain: NPSCGENERHDECSRKECDPKCKYDGTEEKDDEKPVVCLTRVCYGDCICRDGFLRNKNGACVKAEDC
modifications: Sequence derived from Ancylostoma caninum or Synthetic
Normal human plasma [1]
  prolongation of PT (in words): couldn't prolong PT
Normal human plasma [1]; 100 nM
  PT: 11.7 ± 0.5 s
Normal human plasma [1]; 500 nM
  PT: 12.7 ± 0.4 s
Human fIIa (thrombin); 100 nM
  effect on fIIa activity (in words): without affecting
Human fIIa (thrombin); 200 nM
  effect on fIIa activity (in words): without affecting
Human fXa; 100 nM
  effect on fXa activity (in words): without affecting
Human fXa; 200 nM
  effect on fXa activity (in words): without affecting
Human fXIIa; 100 nM
  effect on fXIIa activity (in words): without affecting
Human fXIIa; 200 nM
  effect on fXIIa activity (in words): without affecting
Human fXIa
  inhibition of the activity of fXIa: more than 90%
  inhibition of the activity of fXIa (in words): almost completely inhibited
Normal human plasma [2]
  prolongation of aPTT (in words): significantly prolong aPTT
Normal human plasma [2]; 100 nM
  aPTT: 78.7 ± 8.1 s
  multiples of prolonging aPTT: 1.96
Normal human plasma [2]; 500 nM
  aPTT: 218.3 ± 5.9 s
  multiples of prolonging aPTT: 5.44
fVIIa/TF; 100 nM
  effect on fVIIa/TF activity (in words): without affecting
fVIIa/TF; 200 nM
  effect on fVIIa/TF activity (in words): without affecting
BALb/c mice; 100 μg·kg^−1 tail vein
  Bleeding time: 8.30 ± 2.0 min
BALb/c mice; 1 mg·kg^−1 tail vein
  Bleeding time: 8.26 ± 1.9 min
BALb/c mice; 5 mg·kg^−1 tail vein
  Bleeding time: 8.31 ± 2.2 min
